According to the nanobody polyreactivity screen of Harvey et al. (2022):

Experiment: yeast display, Sf9 membrane polyspecificity reagent, FACS + sequencing; frameworks hold sequencing errors
Procedure, shortened: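 Synthetic nanobody libraries on Saccharomyces cerevisiae BJ5465 were galactose-induced for 36–48 hours, stained 1 hour at 4 °C with 10% biotinylated, detergent-solubilized Sf9 membrane reagent and enriched on streptavidin microbeads. FACS then separated cells into low and high (top ~1%) gates by anti-HA (expression) and streptavidin (reagent binding) fluorescence. Genes were colony-PCR amplified, MiSeq 2 × 250 sequenced and CDR-length filtered. A clone's polyreactivity label is that of its gate of origin.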

Sequence | polyreactivity (PSR sort gate)
QVQLVESGRGLVQAGGSLRLSCAPSGFTFHNNVMGWYRQAPGKERELVATISKSGGSTYYADSVKGRFTISRDNAKNTVYLQMNSLKPEDTAVYYCARRYRDYGRYGYWGQGTQVTVSS | high polyreactivity
QVQLVESGRGLVQAGGSLRLSCAPSGLNFVRYAMGWYRQAPGKERELVARITSRGTSTYYADSVKGRFTISRDNAKNTVYLQMNSLKPEDTAVYYCIKFRSFRDKTRYDYWGQGTQVTVSS | low polyreactivity
QVQLVESGRGLVQAGGSLRLSCASSGRIFTYTAMGWYRQAPWKDSELVARITSGGNTNYADSVKGRFTISRDNAKNTVYLPMNSLKPEDTAVYYSATGLYWFTNRYGCWGLGTQVTVSS | low polyreactivity
QVQLVESGRGLVQAGVSLRISCAPSGRIFSGYAMGWYRQAPGKERELVAAITSSSGSTYYADSVKWRFTISRDNAKNTFYLQMISLKPEDTAVYYCAAEYVRLYWYTSDYWGQGTEVTVSS | low polyreactivity
QVQLVESGRRLVQAGGSLRLSCAASGLTLYKNGMGWYRKAPGQVRELVAVISRSGGRTYYADSVKGRFTISRDNAKNTVYVQMNSLKPEDTAVYYCAARQYGPRYTYYYWGQGTQVTVSS | high polyreactivity
QVQLVESGVCIVQAGGSLRLSGADSGNTLIQYAMRWYRQPHGKERELVAGISGSDDSTYYADSVKGRFTISRDNAKNTVYLQMNSLKPEDTAVYYCAALSISPSRTGYYWGQGTQVTVSS | low polyreactivity
QVQLVESGVCLVQAGGSLRLICAASGNTFYRYAMGWYRQAPGKERELVAAITGRGGSTYYADSVKGRFTISRDNAKNTVYLQMNSQKPEDTAVYYCAAESYGYGNDYWGQGTQVTVSS | low polyreactivity
QVQLVESGVCLVQAGGSLRLSCAASGFTFKWYAMGWYRQAPGKERELVATITIGGRTNYADSVKGRFTISRDNAKNTVYLQMNSLKPEETAVYYCATYFVGFRLSDYDYWGQGTQVTVSS | low polyreactivity
QVQLVESGVCLVQAGGSLRLSCAASGSTYTYAMGWYRQAPGKERELVADITQSGGSTYYADSVKGRFTISRDNAKKTVYLQMNTLKPEDTAVYYCNAESRHVFEDEYWGQGTQVTVSS | low polyreactivity
QVQLVESGVCLVQAGGSLRLSCAATGFTIKYYAMGWYRQPPGKEMELVAAISWTGANTYYADSVKGRFTISRDNAKNTVYLQMNSLKPDYTAVYYCAAGYLIGHSVRTTVRTIYEYWGQGTQVTVSS | high polyreactivity
QVQLVESGVGLDQAGGSLRLSCAASGGIIAINAMGWYSQAPGKERELVAAISWGDGMTYYADSVKGRFTISRDNAKNTVYLQMNSLKPDDSAVYYCAADADEYRGGDVSWGQGTQVTVSS | low polyreactivity
QVQLVESGVGLLQEGGSLSLSCAASGRTFRWYGMGWYSQAPGKEREFVAAISFRGGTTYYADSVKGRFTISRDNAKNTVYLQMNSLKPEDTAVYYCAARSGYYTSDYKYYYWGQGTQVTVSS | high polyreactivity
QVQLVESGVGLVKAGGSLRLSCAASGFTIRPYAMGWYRQAPGKERELVAAITSGDSTNYADSVKGRFTISRDNAKNTVYLQMNSLKPEDTAVYYCAVDGGEFTSYGYWGQGTQVTVSS | low polyreactivity
QVQLVESGVGLVKAGGTLRLSCAASGGIFDYNAMGWYRQAPGKERELVAYYADSVKGRFTLSRDNAKNTVYLQMNSLKPEDTAVYYCAVDGGEFSSYGYWGQGTQVTVSS | low polyreactivity
QVQLVESGVGLVNAGGSLRLSCAASGYIFSPNVMGWYRQAPGKERELVAAITRGGGTYYADSVKGRFTISRDNAKNTVYLHLNSLKPEDTAVYYCNEDYTLSVYGTTYCYNYWGQGTQVTVSS | high polyreactivity
QVQLVESGVGLVQAAGSLRLSCAASGRIFYHYTMGWYRQAPGKERELVAAITSGGSTYYADSVKGRFTISRDNAKNTVYLQMNSLKPEDTAVYYCAAEGYTYYPVYSTRMYYWGQGTQVTVSS | low polyreactivity

Sequence | polyreactivity (PSR sort gate)
QVQLVESGVGLVQAGGSIRLSCAASGRTFRYYTMGWYRQAPGKEREFVAAISSTGGTYYADSVKGRFTISRDNAKNTVYLQMNSLKPEDTAVYYCAATFIQVVVNVQLYDYDYWGQGTQVSVSS | low polyreactivity
QVQLVESGVGLVQAGGSLRLCCAASGSTSKYYAMVWYRQSPGKERELVAAITWSDVSTYYADSVKGRFTISRDNAKNTVYLQMNSLKPADTAVYYCNAGYDYWGQGTQVTVSS | low polyreactivity
QVQLVESGVGLVQAGGSLRLICAASGRIFANYAMGWYRQAPGKERELVAAITGSGGTTYYADSVKGRFTISRDNAKNSVYLEMNSLKPEDTAVYYCATPPPVVWQRWYREYDYWGQGTQVTVSS | low polyreactivity
QVQLVESGVGLVQAGGSLRLIWAASGSTFVKNVMGWYRQAPGKERELVAGITRGGSTYYADSVKGRFTISRDNAKKTVYLQMNSLKPEDTAVYYCAKRYAWDRDYWGQGTQVTVSS | high polyreactivity
QVQLVESGVGLVQAGGSLRLSCAASGFIFYGYAMGWYRQAPGKERELVAGNSTGGSTNYADSVKGRFTISRENAKNTVYLQMNSMKPEDTAVYDGAVVDVEQHVGHWGQVTQVTVSS | low polyreactivity
QVQLVESGVGLVQAGGSLRLSCAASGFIIRTYAMGWYIQAPGKERELVATITGDGSTNYADSVKGRFTISRDNAKNTVYLQMNSLKPEDTAVYYCSRDDRLAVDYWGQGTQVTVSS | low polyreactivity
QVQLVESGVGLVQAGGSLRLSCAASGFTFMKNAMGWYRQAPGKERELVAAITSSGGRPYYADSVKGRFTISRDIAKNTVYLQMNSLKPEDTAVYYCNKGPLPGYDYWGQGTQVTVSS | high polyreactivity
QVQLVESGVGLVQAGGSLRLSCAASGFTFTRYAMGWYRQAPGKERELVAAISWTGGSTYYADSVKGRFTISRDNAKNTVYLQMNSLKPEDTAVYYCAGRFNYQWSKFGYWGQGTQVTVSS | high polyreactivity
QVQLVESGVGLVQAGGSLRLSCAASGGIFVPYAMGWYRQAPGKERELVAGITSGGSTNYADSVKGRFTISRDNAKNTVYLQMNSLKPEDTAVYYCAARRRPGGRYKSRVWYDYWGQGTQVTVSS | high polyreactivity
QVQLVESGVGLVQAGGSLRLSCAASGGNFWSYPMGLYRQAPGKEREYVAAITTSAGRTNYADSVKGRFTISRDNAKNSVYLQMNSLKPEDTAVYYCAARSAYPGLGYGFDYWGQGTQVTVSS | low polyreactivity
QVQLVESGVGLVQAGGSLRLSCAASGIILYRYSMGWYRQAPGKEREFGAAISRTGASTYYADSVKGRFTISRDNAKKSVYLQMNSRKPEDTAVYYCDVKALDQARYGKSGYWGQGTQVSVSS | high polyreactivity
QVQLVESGVGLVQAGGSLRLSCAASGITFAGNAMGWYRQAPGKERELVATITSDGNTNYADSVKGRFTISRDNAKNTVYLQMNSLKPEDTAVYYCNAEVIVGTDEYDYWGQGTQVTVSS | low polyreactivity
QVQLVESGVGLVQAGGSLRLSCAASGITFYSYAMGWYRQAPGKERELVAAITLTGGTTYYADSVKGRFTISRDNAKNTVYLQMKSLKPEDTAVYYCAAQYWWWSLFEYDSWGQGTQVTVSS | low polyreactivity
QVQLVESGVGLVQAGGSLRLSCAASGNIFLKNAMGWYRQAPGKERELVAAMSKRGGSTYYADSVKGRFTISRDNAKNTVYLQMNSLKPEDTAVYYCAARFKTTGYDYWGQGTQVTVSS | high polyreactivity
QVQLVESGVGLVQAGGSLRLSCAASGPTFRNNAMVWSRQAPGKERELVAAITSGGSTNYADSVKGRFTISRDNAKNTVYLQMNSLKPEDTAVYYCAKDFWYVTGGWSSGMDYWGQGTQVSVSS | low polyreactivity
QVQLVESGVGLVQAGGSLRLSCAASGRIFEDNAMGWYRQAPGKERELVAAIDFSGGDTYYADSVKGRFTISRDNAKNTVYLQMYSLKPEDTAVYYCAAGRSGWGYVSWGQGTQVTVSS | low polyreactivity
